Data published in patent publication US20120277286A1, “COMPOSITIONS AND METHODS FOR THE TREATMENT OR PREVENTION OF MITOCHONDRIAL DISEASES” (The Government of the USA, as represented by the Secretary, …, priority 2009, published 2012).

Legend:
Type in all cases: cell-based
HEK293 cells = experiment: Endogenous Parkin localization by immunostaining after depolarization; conditions: 10 μM CCCP
Experimental: Mitochondrial fission has been linked to the function of Parkin and to the autophagy of small defective mitochondria that lack membrane potential. To test whether mitochondrial depolarization causes Parkin accumulation on mitochondria, HEK293 cells were treated with the mitochondrial uncoupler carbonyl cyanide m-chlorophenylhydrazone (CCCP). Within 1 hour of adding CCCP, endogenous Parkin was recruited to mitochondria in the majority of cells (FIG. 1B) and increased appearance in the heavy membrane pellet on Western blots (FIG. 1C). […] As with endogenous Parkin in HEK293 cells, CCCP exposure induced the redistribution of YFP-Parkin from the cytosol to the mitochondria (FIGS. 1E and F). […] The mitochondrial translocation of Parkin caused by mitochondrial depolarization was also assayed by fluorescence loss in photobleaching (FLIP).
Cultured cells seeded in borosilicate chamber slides (Thermo Fisher Scientific) were transfected or cotransfected with YFP-Parkin, ECFP-Parkin, mCherry-Parkin, DsRed-Mito (Clontech Laboratories, Inc.), pcDNA3.1 (Invitrogen), vMIA, and/or Drp1K38A constructs using Fugene 6 (Roche). Parkin-myc was a gift from M. Cookson (National Institutes of Health, Bethesda, Md.). Cells were fixed 12-24 hours after transfection with 4% paraformaldehyde in PBS. […]

PINK1 = PINK1 accumulation by fractionation and immunoblotting; conditions: HeLa cells, mitochondrial membrane fraction; 10 μM CCCP or 1 μM valinomycin
Outline: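 HeLa cells fractionated with a mitochondria isolation kit for PINK1, with membrane fractions carbonate-extracted in cold 0.1M Na2CO3 to pellet integral membrane proteins; Parkin fractionation by a separate published protocol. PINK1 and Parkin detected in fractions by immunoblot with monoclonal and polyclonal antibodies.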

HeLa cells [1] = experiment: PINK1-YFP imaging and colocalization in HeLa cells; conditions: live imaging, 10 μM CCCP
Experimental: (§1) Confocal microscopy of fixed samples, scoring of Parkin recruitment and Parkininduced mitophagy, and live cell imaging were performed as described previously (Narendra (2008) J Cell Biol 183: 795-803). Experiments in Mfn1/2 null cells were performed as described previously with minor modifications.
as §1, with “Parkin-induced” for “Parkininduced”, “imageing” for “imaging”, “modifications described in the supplemental methods (Narendra (2008) J Cell Biol 183: 795-803).” for “modifications.”

HeLa cells [2] = experiment: Transmission electron microscopy of mitochondria and lysosomes; conditions: 10 μM CCCP 48 hours
Experimental: HeLa cells transfected with YFP-Parkin for 18 hours were sorted for YFP using FACS. After sorting, 99.7% of cells contained a detectable YFP signal. After overnight culture, cells were treated with 10 μM CCCP for 48 h, fixed with 4% glutaraldehyde in 0.1 N sodium-cacodylate at room temperature for 1 hour, and processed for electron microscopy using a standard protocol. 22 cells expressing Parkin and 22 untransfected cells were randomly selected and imaged at 8,000× magnification by transmission electron microscope (200CX; JEOL Ltd.) and a digital camera system (XR-100; Advanced Microscopy Techniques, Corp.). The area of cytoplasm in each cell was calculated using National Institutes of Health ImageJ.

HeLa cells [3] = experiment: Parkin in mitochondria-rich membrane fraction, immunoblot; conditions: HeLa, CCCP 1 hr, Western blotting
Source text: (§2) For PINK1 experiments, cells were fractionated using the Mitochondria Isolation Kit (Pierce), according to manufacturer's specifications with slight modifications. To isolate integral membrane proteins, membrane fractions obtained as above were carbonate extracted with 0.1M Na2CO3 fresh cold buffer and membranes were pelleted, as described in the supplemental methods. For Parkin experiments, cells were fractionated as described previously, with minor modifications described in the supplemental methods (Narendra (2008) J Cell Biol 183: 795-803). The following primary antibodies were used: anti-Parkin (PRK8) monoclonal (Santa Cruz), anti-Tom20 polyclonal (Santa Cruz), anti-cytochrome c monoclonal (BD Biosciences), anti-PINK1 polyclonal (Novus Biologicals), anti-VDAC monoclonal (Calbiochem), anti-GAPDH polyclonal (Sigma-Aldrich), anti-Tubulin monoclonal (Sigma-Aldrich), anti-V5 monoclonal (Invitrogen), anti-GFP polyclonal (Invitrogen).
as §2, with “with slight modifications described in the supplemental methods. To isolate” for “with slight modifications. To isolate”, “minor modifications detailed in the” for “minor modifications described in the”, “supplemental methods (Narendra (2008) J Cell Biol 183: 795-803). The protease protection assay was performed as described previously (Chen (2005) J Biol Chem 280: 26185-26192). Cells were fixed and immunostained as described previously (Narendra (2008)” for “supplemental methods (Narendra (2008)”, “anti-GFP polyclonal (Invitrogen), anti-TIM23 monoclonal (BD Biosciences), and anti-Hsp60 monoclonal (Stressgen).” for “anti-GFP polyclonal (Invitrogen).”

Molecule	time to recruitment of endogenous Parkin to mitochondria in the majority of cells (HEK293 cells) [h]	endogenous full length PINK1 (˜63 kDa) level after depolarization (PINK1)	time when increase of PINK1-YFP expression was first detectable (HeLa cells [1]) [min]	cells with either few or no detectable mitochondrial structures (HeLa cells [2]; electron microscopy) [%]	lysosomes per cell area (HeLa cells [2]; n=22 cells) [lysosomes/μm 2 cell area]	mitochondria per area of cytoplasm (HeLa cells [2]; n=22 cells)	translocation of YFP-Parkin variant to mitochondria-rich membrane fraction (HeLa cells [3])
N#CC(C#N)=NNc1cccc(Cl)c1 [CCCP, carbonyl cyanide m-chlorophenylhydrazone]	≤ 1	large increase	1 to 5	–	–	–	–
YFP-Parkin: YFP-tagged Parkin E3 ligase expressed from a transfected vector (protein, UniProt O60260 1-465, looked up, YFP fusion, YFP-tagged Parkin E3 ligase expressed from a transfected vector) E3 ubiquitin-protein ligase …: MIVFVRFNSSHGFPVEVDSDTSIFQLKEVVAKRQGVPADQLRVIFAGKELRNDWTVQNCDLDQQSIVHIVQRPWRKGQEMNATGGDDPRNAAGGCEREPQSLTRVDLSSSVLPGDSVGLAVILHTDSRKDSPPAGSPAGRSIYNSFYVYCKGPCQRVQPGKLRVQCSTCRQATLTLTQGPSCWDDVLIPNRMSGECQSPHCPGTSAEFFFKCGAHPTSDKETSVALHLIATNSRNITCITCTDVRSPVLVFQCNSRHVICLDCFHLYCVTRLNDRQFVHDPQLGYSLPCVAGCPNSLIKELHHFRILGEEQYNRYQQYGAEECVLQMGGVLCPRPGCGAGLLPEPDQRKVTCEGGNGLGCGFAFCRECKEAYHEGECSAVFEASGTTTQAYRVDERAAEQARWEAASKETIKKTTKPCPRCHVPVEKNGGCMHMKCPQPQCRLEWCWNCGCEWNRVCMGDHWFDV	–	–	–	90	0.38±0.23	0.074±0.21 mitochondria/μm 2 of cytoplasm	increase
